Test results as given in paper PMC8514580, “Insight into the interaction between the RNA helicase CGH-1 and EDC-3 and its implications” (Scientific Reports, 2021).
“Also recorded” adds a separate entry of the source.

Experiments:
[1] = target: CAR-1 184-214 (Caenorhabditis elegans) (UniProt Q9XW17); assay: ITC; details: cited from earlier work
[2] = test system: CGH-1_248–420; assay: GST-pulldown of CGH-1_248–420 WT; format: binding, C. elegans; details: PBS, ~100 μg GST protein, ~50 μg CGH-1, 2 h, 12% SDS-PAGE
Protocol: (§1) The cDNA encoding a fragment of C. elegans EDC-3 (residues 230–566) plus a C-terminal His6 tag was synthesized by Sangon Biotech (Shanghai, China) Co., Ltd. The DNA fragment was then cloned into a pGEX-4T-1 expression vector using restriction enzymes BamHI and XhoI, and finally confirmed by DNA sequencing.
(§2) To test if GST-tagged EDC-3 can pulldown CGH-1 protein, about 100 μg protein, GST alone or GST-EDC-3_230–566, was incubated with GST resin (GE Healthcare) in PBS for 1 h. The resin was then washed three times with the same buffer. Subsequently, the resin was incubated with ~ 50 μg recombinant CGH-1_248–420 protein or its 4A mutant in the same buffer for 2 h. The resin was then washed five times using the same buffer. The captured proteins in resin were finally heated and analyzed using 12% SDS-PAGE.

[3] = test system: 4A mutant of CGH-1_248–420; assay: GST-pulldown of CGH-1_248–420 4A mutant; format: binding, C. elegans; details: PBS, ~100 μg GST protein, ~50 μg CGH-1 4A, 2 h, 12% SDS-PAGE
Protocol: as §1, §2

[4] = target: CGH-1_248-420^F355A (Caenorhabditis elegans, UniProt Q95YF3, F355A); parameters: the cDNA fragments encoding CGH-1 RecA2 (residues 248–420); made in house; host or cells: E. coli Gold (DE3); details: ITC, CGH-1 F355A vs WT; cited from earlier work
Excerpt: We recently identified a highly conserved FDF (Phe-Asp-Phe) motif between beta-strand 12 and alpha-helix 13 in CGH-1 RecA2 domain but the function is currently unclear (Fig. 1B)[17]. Mechanistically, Phe355 in CGH-1 may mediate hydrophobic interaction with Thr266 in the TFG motif of CAR-1 and a mutation of Phe355 to Ala (F355A) in CGH-1 decreased the binding affinity by a factor of approximate 5 as measured by ITC assay. Since PATR-1N-terminus has also a TFG motif, we hypothesize that PATR-1 may also interact with CGH-1 via similar binding mechanism (Supplementary Fig. S3B and C). Striking ...

[5] = test system: human HA-tagged DDX6; details: Co-immunoprecipitation, YFP-tagged PATL1 mutants; cited from earlier work

Sequence of CGH-1_248-420^F355A (Q95YF3 248-420 F355A): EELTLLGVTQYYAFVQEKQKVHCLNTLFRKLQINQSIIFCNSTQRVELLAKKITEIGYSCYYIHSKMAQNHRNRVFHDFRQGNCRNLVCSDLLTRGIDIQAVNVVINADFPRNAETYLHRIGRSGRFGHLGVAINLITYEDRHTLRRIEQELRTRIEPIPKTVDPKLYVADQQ

CGH-1 248-420 (from UniProt Q95YF3)
Kd [1]: 43 µM

B1: GST-EDC-3_230–566: GST-tagged fragment of C. elegans EDC-3 (residues 230–566) plus a C-terminal His6 tag (protein)
chain: RNKNDLADPIDFDLDSDFDFAENLKLFEKDENDDQYYETVEKFKCSQNFAHYENIIDDENRVTSWTNLKARSELVKTGTTPQTSEKNNFRVTAVSFEKSIIGDPIPAISLNEKKEFLNECRVSLGEAVYDTIVADRIFQWVSEVQNSYGDAHGTVVLLASSANSVRSIRRLLTHFDKRRYNCHLFGKYPGEIFDHVNVVTDVKMLPREVPIICILSPVVNDDVECWLRAQSNGASSHYVCIENVPSVLEPSRCHLLQFGCATNGLRHAERKVQTINRGGITFEHLCQGKMHEETSSILVDSAIADLGSPSNWFDNTSSKFISTAFSTTFLVRLSQSN
modifications: left off: GST, end not stated, kept | His6, C-terminal, state not stated
notes: GST-tagged fragment of C. elegans EDC-3 (residues 230–566) plus a C-terminal His6 tag
interaction with CGH-1_248–420 [2]: can interact with CGH-1_248–420; also recorded: binds to CGH-1 RecA2 domain
amount of CGH-1 4A bound compared with wild-type [3]: less amount

B2: CAR-1: CAR-1, construct of ref 17; TFG motif interacts with Phe355 of CGH-1 (protein, UniProt Q9XW17 1-340, looked up)
Protein LSM14 homolog car-1: MSNQTPYIGSKISLISKLDIRYEGILYTVDTNDSTIALAKVRSFGTEKRPTANPVAARDDVYEYIIFKASDIKDLIVCDTPKMANIGGGLPYDPAIISVSSRSAPASDGAPAASAGSSRAGTPSRNSPLGQIIQNQRPGRGGYQQNFQANRGYNNYRGGFAGGYNNQRGHNNYGVPRVNHREKLKFESDFDFEKANEKFQEVLVDNLEKLNIEDKAEPEVEEKKDAAFYDKKTSFFDNISCESLEKAEGKTGRPDWKKERETNQETFGHNAVRSLNYRRGFGGRGRGGNRGYGGYNNGYQHQHQHRGGYNGGYRQNNGGYRRGGYAPRDNQGNTAAAAEQ
decrease of binding affinity, factor vs WT [4]: ~5

B3: YFP-tagged PATL1 W46D: substitution of Trp46 to Asp in the YFP-tagged PATL1 (protein, UniProt Q86TB9 1-770, looked up, variant W46D)
Protein PAT1 homolog 1: MFRYESLEDCPLDEDEDAFQGLGEEDEEIDQFNDDTFGSGAVDDDDQEAHERLAELEEKLPVAVNEQTGNGERDEMDLLGDHEENLAERLSKMVIENELEDPAIMRAVQTRPVLQPQPGSLNSSIWDGSEVLRRIRGPLLAQEMPTVSVLEYALPQRPPQGPEDDRDLSERALPRRSTSPIIGSPPVRAVPIGTPPKQMAVPSFTQQILCPKPVHVRPPMPPRYPAPYGERMSPNQLCSVPNSSLLGHPFPPSVPPVLSPLQRAQLLGGAQLQPGRMSPSQFARVPGFVGSPLAAMNPKLLQGRVGQMLPPAPGFRAFFSAPPSATPPPQQHPPGPGPHLQNLRSQAPMFRPDTTHLHPQHRRLLHQRQQQNRSQHRNLNGAGDRGSHRSSHQDHLRKDPYANLMLQREKDWVSKIQMMQLQSTDPYLDDFYYQNYFEKLEKLSAAEEIQGDGPKKERTKLITPQVAKLEHAYKPVQFEGSLGKLTVSSVNNPRKMIDAVVTSRSEDDETKEKQVRDKRRKTLVIIEKTYSLLLDVEDYERRYLLSLEEERPALMDDRKHKICSMYDNLRGKLPGQERPSDDHFVQIMCIRKGKRMVARILPFLSTEQAADILMTTARNLPFLIKKDAQDEVLPCLLSPFSLLLYHLPSVSITSLLRQLMNLPQSAATPALSNPHLTAVLQNKFGLSLLLILLSRGEDLQSSDPATESTQNNQWTEVMFMATRELLRIPQAALAKPISIPTNLVSLFSRYVDRQKLNLLETKLQLVQGIR
modifications: YFP tag
interaction with DDX6 [5]: impaired the interaction
